Results from US20030087315A1 (MCP HAHNEMANN UNIVERSITY, published 2003).
No end group written: not given here. *: point of attachment. Biotin = O=C1N[C@H]2[C@H](CS[C@H]2CCCCC(=O)*)N1

Legend:
[1] = biological target: T1, α2(I) chain of type I collagen (mouse, UniProt Q01149 97-1110, limits assumed); assay: filter binding assay, electroblotted chains, avidin-peroxidase
T1 construct: Denatured chain on a nitrocellulose filter; pepsin-treated collagen
From the text: (§1) The α1(I) and α2(I) chains of type I collagen or CNBr fragments of the chains were separated by polyacrylamide gel electrophoresis and electroblotted onto filters. The filters were then hybridized with a biotinylated telopeptide followed by assay of the washed filter with streptavidin-horseradish peroxidase. “CNBr+” indicates α1(I) or α2(I) chains which were digested with cyanogen bromide.
Type I collagen extracted with 0.5 M acetic acid from mouse skin was digested with pepsin, and the a chains separated by gel electrophoresis in SDS. To generate CNBr peptides, gel slices containing α1(1) and α2(I) chains were placed into tubes and a chains were digested with 10 mg/ml or 200 mg/ml CNBr in 70% formic acid at room temperature overnight. The gel slices were equilibrated with 0.05 mM Tris-HCl buffer (pH 6.8) over 3 hours. Gel pieces containing CNBr peptides derived from individual collagen a chains were transferred into the wells of the second gel prepared with a 6% polyacrylamide stacking gel and 12% polyacrylamide separating gel with 0.5 M urea. After electrophoresis, the gel was electroblotted overnight at 4° C. onto a nitrocellulose filter (Millipore). To study binding of telopeptides to collagen fragments, the method described by Fujisawa et al. (Fujisawa et al., 1994, Calcif. Tiss. Int. 56:140-144) was used. The filters were blocked with 1% bovine serum albumin (Sigma) and then incubated overnight with 20 ml of 5 mg/ml peptide that was substituted at the N-terminus with biotin (synthesized for us by American Peptide Company, Inc.). The filter was washed three times with Tris-buffered saline containing 0.02% Tween (TBST) and incubated 30 min with a 1:30,000 dilution of horseradish peroxidase conjugated with avidin (Sigma). The bands were detected by chemiluminescence (ECL; Amersham) after exposure to an X-ray film for 3 to 10 min.

[2] = biological target: T2, α1(I) chain of type I collagen (mouse, UniProt P11087 168-1181, limits assumed); assay: electroblot assay, FIG. 5C
T2 construct: Denatured chain on a nitrocellulose filter; pepsin-treated collagen; also called α1 chain
T2 sequence (P11087 168-1181 limits assumed): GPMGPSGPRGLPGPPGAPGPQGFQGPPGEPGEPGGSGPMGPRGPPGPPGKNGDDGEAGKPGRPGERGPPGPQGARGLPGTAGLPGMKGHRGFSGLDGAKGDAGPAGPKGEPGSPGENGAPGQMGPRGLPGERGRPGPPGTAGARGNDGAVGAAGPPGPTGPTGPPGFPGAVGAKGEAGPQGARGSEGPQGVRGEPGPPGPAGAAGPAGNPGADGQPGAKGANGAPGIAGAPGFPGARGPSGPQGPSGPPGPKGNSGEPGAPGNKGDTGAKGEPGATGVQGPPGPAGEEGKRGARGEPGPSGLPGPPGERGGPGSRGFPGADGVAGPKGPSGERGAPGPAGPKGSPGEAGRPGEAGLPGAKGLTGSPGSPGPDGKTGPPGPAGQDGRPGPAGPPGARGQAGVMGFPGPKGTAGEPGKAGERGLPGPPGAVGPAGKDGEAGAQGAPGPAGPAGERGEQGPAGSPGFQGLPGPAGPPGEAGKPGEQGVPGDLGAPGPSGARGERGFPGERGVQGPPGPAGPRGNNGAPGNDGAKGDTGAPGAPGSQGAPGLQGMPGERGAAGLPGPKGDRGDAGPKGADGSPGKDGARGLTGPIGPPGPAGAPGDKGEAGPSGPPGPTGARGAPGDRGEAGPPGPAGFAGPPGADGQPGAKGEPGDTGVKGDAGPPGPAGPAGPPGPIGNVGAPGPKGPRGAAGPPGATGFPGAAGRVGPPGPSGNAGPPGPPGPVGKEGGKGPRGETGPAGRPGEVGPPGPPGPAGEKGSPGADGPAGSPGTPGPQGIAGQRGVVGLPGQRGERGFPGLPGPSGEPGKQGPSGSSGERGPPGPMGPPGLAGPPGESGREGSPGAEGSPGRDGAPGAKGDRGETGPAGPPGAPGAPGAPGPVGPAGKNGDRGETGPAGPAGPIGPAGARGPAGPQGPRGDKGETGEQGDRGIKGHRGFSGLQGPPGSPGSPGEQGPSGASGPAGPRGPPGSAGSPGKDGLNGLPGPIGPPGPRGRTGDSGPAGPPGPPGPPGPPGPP
From the text: as §1
(§2) Type I collagen extracted with 0.5 M acetic acid from mouse skin was digested with pepsin, and the a chains separated by gel electrophoresis in SDS. To generate CNBr peptides, gel slices containing α1(1) and α2(I) chains were placed into tubes and a chains were digested with 10 mg/ml or 200 mg/ml CNBr in 70% formic acid at room temperature overnight. The gel slices were equilibrated with 0.05 mM Tris-HCl buffer (pH 6.8) over 3 hours. Gel pieces containing CNBr peptides derived from individual collagen a chains were transferred into the wells of the second gel prepared with a 6% polyacrylamide stacking gel and 12% polyacrylamide separating gel with 0.5 M urea. After electrophoresis, the gel was electroblotted overnight at 4° C. onto a nitrocellulose filter (Millipore). […] The bands were detected by chemiluminescence (ECL; Amersham) after exposure to an X-ray film for 3 to 10 min.

[3] = biological target: T2, α1(I) chain of type I collagen; assay: electroblot assay, FIG. 5B
From the text: as §1, §2

T1 sequence (Q01149 97-1110 limits assumed): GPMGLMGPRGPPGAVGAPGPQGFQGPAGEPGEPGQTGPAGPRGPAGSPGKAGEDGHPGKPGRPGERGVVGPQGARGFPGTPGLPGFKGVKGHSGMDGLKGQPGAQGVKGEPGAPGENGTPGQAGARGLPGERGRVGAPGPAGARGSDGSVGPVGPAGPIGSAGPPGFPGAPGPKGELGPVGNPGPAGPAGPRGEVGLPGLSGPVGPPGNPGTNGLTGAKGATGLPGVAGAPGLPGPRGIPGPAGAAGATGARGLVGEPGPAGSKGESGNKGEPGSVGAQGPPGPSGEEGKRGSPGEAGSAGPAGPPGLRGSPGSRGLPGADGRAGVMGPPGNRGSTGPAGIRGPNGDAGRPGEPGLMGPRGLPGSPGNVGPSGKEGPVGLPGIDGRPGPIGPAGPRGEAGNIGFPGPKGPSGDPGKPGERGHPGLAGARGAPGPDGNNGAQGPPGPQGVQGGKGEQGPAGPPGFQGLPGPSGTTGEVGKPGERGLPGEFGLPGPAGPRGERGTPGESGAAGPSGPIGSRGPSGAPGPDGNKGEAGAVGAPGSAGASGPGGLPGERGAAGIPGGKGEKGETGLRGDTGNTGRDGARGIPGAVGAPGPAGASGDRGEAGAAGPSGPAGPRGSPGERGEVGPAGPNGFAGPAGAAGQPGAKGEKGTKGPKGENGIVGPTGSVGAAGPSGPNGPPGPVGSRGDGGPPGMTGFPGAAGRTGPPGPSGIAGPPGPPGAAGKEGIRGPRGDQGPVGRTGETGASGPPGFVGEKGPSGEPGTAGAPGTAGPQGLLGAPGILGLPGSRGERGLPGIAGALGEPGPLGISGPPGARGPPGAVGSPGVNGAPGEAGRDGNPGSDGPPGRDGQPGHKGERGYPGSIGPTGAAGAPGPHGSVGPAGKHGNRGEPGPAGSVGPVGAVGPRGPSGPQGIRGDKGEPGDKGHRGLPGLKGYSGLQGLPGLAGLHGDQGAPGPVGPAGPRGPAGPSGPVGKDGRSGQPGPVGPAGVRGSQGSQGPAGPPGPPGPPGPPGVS

binding result [2] | binding result [3] | Binder | binding result [1]
– | – | Biotin-QYDGKGVGLGP (peptide, UniProt P08123 80-90, looked up, domain: N-telopeptide; also called biotinylated α2 N-telopeptide) [biotinylated N-telopeptide of α2 chain of human type I collagen] | no binding (tested: 5 mg/ml peptide (so in the source))
binds | – | Biotin-QLSYGYDEKSTGGISVP (also called biotinylated α1 N-telopeptide) [biotinylated N-telopeptide of the α1 chain of human type I collagen] | no binding (tested: 5 mg/ml peptide (so in the source))
– | binds | Biotin-GGGYDFGYDGDFYRA (also called biotinylated F3) [biotinylated C-telopeptide of α2 chain of human type I collagen] | no binding (tested: 5 mg/ml peptide (so in the source))
